We go through two molecules from patent US9254322B2, “Compositions comprising E-selectin antagonists and uses therefor” (The University of Queensland, priority 2007, dated 2016).

Data set [1] concerns long-term reconstituting hematopoietic stem cells. Briefly: HSC cycling and number in vivo following cytotoxic insult with 5-fluorouracil in wild-type and E-selectin KO mice. As for the experimental part: Adult mice (10-14 week-old) with homologous deletion of the E-selectin gene were administered intravenously a single dose of 5-FU at 150 mg/kg. At days 2 and 6 following 5-FU, mice were injected intraperitoneally BrdU 100 mg/kg followed by a continuous dose of 1 mg/mL in their drinking water at a concentration of 1 mg/mL. 18 hours following the injection of BrdU. Mice were sacrificed, their bone marrow cells collected as described above and stained with the following combination of antibodies: a) biotinylated antibodies against lineage-specific antigens CD3, CD5, B220/CD45R, CD11b, Gr-1/Ly-6C/G, CD41, Ter119 together with streptavidin conjugated to PercP-Cy5.5; b) fluorescein isothiocyanate (FITC) conjugated anti-CD48; c) phycoerythrin (PE) conjugated anti-CD150; d) PECy7 conjugated anti-Sca-1/Ly-6A/E; f) allophycocyanin (APC) conjugated anti-CD117 antibodies. True hematopoietic stem cells with the phenotype Lineage-negative, Sca1-positive, CD117-positive, CD41-negative, CD48-negative, CD150-positive were counted and sorted as described above. Sorted cells were cytospun on glass slides and stained with anti-BrdU antibodies as described above.

In data set [2] the test system is hematopoietic stem and progenitor cells. As to the kind of experiment: Mobilization of HSC with recombinant human pegylated G-CSF in wild-type and E-selectin KO mice. The settings on record: 3-day course, total 1 mg/kg s.c. It counts as in vivo, C57BL/6 mice. As for the experimental part:
Mobilization was induced in wild-type C57BL/6 mice and in C57BL/6 mice carrying homologous deletion of the E-selectin gene (E-selectin KO mice), using recombinant human G-CSF following a mobilization dosing and protocol similar to that used for human patients.
Adult mice (10- to 14-week old males) were administered recombinant human pegylated G-CSF (granulocyte colony stimulating factor) subcutaneously. Two doses were given 36 hours apart, each at 0.5 mg/kg. The G-CSF used was Neulasta, from Amgen. Neulasta was diluted to 0.1 mg/mL in sterile saline for injection and 100 μL used per injection into 20 g mice. In some experiments, a cohort of ‘control’ mice received saline injections alone.
Blood containing the mobilized HSC, was collected 3 days following the initial G-CSF injection using heparin as anticoagulant (13 units of sodium heparin/mL blood). Four different assays were performed on the blood to determine the extent of HSC mobilization. Some of these assays are surrogate measures of mobilization that are commonly used in the clinical setting; that is they measure associated changes, not HSC content directly. These are total blood leukocyte counts and numbers colony forming cells (CFC) in the blood. The third assay based on phenotypic analysis (expression of a panel of surface markers which define long-term reconstituting HSC), while directly measuring HSC, also detect some progenitor cell populations. Phenotypic enumeration is commonly used to determine HSC mobilization in human patients (a different array of cell-surface markers are used in mice). […]
A) Blood leukocyte counts were measured on a Sysmex KX21 automated haematology analyser (Roche).
B) Colony forming cell assay. […] The number of colony forming cells (CFC) per mL of blood can then been calculated. […]

Data set [3] has the same test system. As to the kind of experiment: G-CSF mobilization after 8 rounds of cyclophosphamide chemotherapy in wild-type and E-selectin KO mice. It counts as in vivo. The settings on record: mice pre-treated with 8 fortnightly rounds of cyclophosphamide 200 mg/kg, 6 weeks rest, then G-CSF; FIG. 8. As for the experimental part:
Wild-type and E-selectin KO mice were first administered 8 consecutive rounds of chemotherapy. The chemotherapeutic agent used was the alkylating agent cyclophosphamide administered as a single intraperitoneal injection at 200 mg/kg. Mice were given 8 rounds of cyclophosphamide chemotherapy at fortnightly intervals, then left to recover for 6 weeks before administration of G-CSF (total 1 mg/kg as above) and blood collected 3 days later at HSC mobilization. Blood was analyzed for total leukocyte count, Colony forming cells and phenotypic HSC as described above.

As to `O=c1[nH]cc(F)c(=O)[nH]1` [5FU, 5-fluorouracil], in data set [1] (day 7 after single dose 150 mg/kg, FIG. 4), the “HSC numbers per femur, E-selectin-/- versus WT mice” value came to 5 fold. Besides, the “BrdU incorporation in hematopoietic stem cells, E-selectin knock-out versus wild-type mice” value in data set [1] (days 3 and 7 after single dose 150 mg/kg, BrdU in last 17 hours, FIG. 3) was “significantly lower”.

B1: pegylated G-CSF: recombinant human pegylated G-CSF (granulocyte colony stimulating factor), Neulasta from Amgen (protein, UniProt P09919 31-207, looked up)
Granulocyte …: TPLGPASSLPQSFLLKCLEQVRKIQGDGAALQEKLVSECATYKLCHPEELVLLGHSLGIPWAPLSSCPSQALQLAGCLSQLHSGLFLYQGLLQALEGISPELGPTLDTLQLDVADFATTIWQQMEELGMAPALQPTQGAMPAFASAFQRRAGGVLVASHLQSFLEVSYRVLRHLAQP
modifications: PEG (pegfilgrastim)
notes: recombinant human pegylated G-CSF (granulocyte colony stimulating factor), Neulasta from Amgen
For B1, the “number of phenotypic HSC per mL of mobilized blood, E-selectin KO versus wild-type mice” value in data set [2] (FIG. 7C) is on record as 2.5 fold. The “number of CFC per mL of mobilized blood, E-selectin KO versus wild-type mice” value in data set [2] (blood collected 3 days after first injection, FIG. 7B) amounted to 2.5 fold. Also, the “number of functional long-term reconstituting HSC per mL of mobilized blood, E-selectin KO versus wild-type mice” value in data set [2] (competitive long-term reconstitution assay) turned out to be 12 fold. In data set [3], the “CFC per mL of peripheral blood, E-selectin KO versus wild-type mice” value stood at 5 fold and the “phenotypic HSC per mL of peripheral blood, E-selectin KO versus wild-type mice” value is 2.5 fold.
